In patent US20240124857A1, “COMPOSITION FOR GUT HEALTH” (DUPONT NUTRITION BIOSCIENCES APS, priority 2021, published 2024):

How the values were obtained:
[1] = ATPase activity at 0.05 ppm enzyme on 0.1 mM ATP (absorbance 620 nm); format: biochemical; conditions: for Activity on ATP (absorbance at 620 nm, blank subtracted), pH 5.0: 50 mM IVIES buffer pH 5; for Activity on ATP (absorbance at 620 nm, blank subtracted), pH 6.0: 50 mM IVIES buffer pH 6
Protocol: Enzyme activity towards ATP or ADP at pH 3 to 9: The ability of candidate enzymes to degrade ATP or ADP to AMP and free phosphate (Pi) was measured using a standard malachite green phosphate detection kit (Sigma Aldrich cat no. MAK307). The enzyme reactions were carried out in 96-well plates with a total volume of 150 μL and contained 250 μM of a substrate, 50 mM of a buffer, 5 mM CaCl2, and a variable concentration of enzyme. The substrate was ATP or ADP. The buffer was glycine (pH 3), acetate (pH 4, 4.5, 5), bis-Tris (pH 5.5, 6, 6.5), or Tris (pH 7, 8, 9). The concentration of enzyme varied from about 1 μg/mL to 1 ng/mL and was adjusted based on the activity of the enzyme so that the amount of phosphate released during the assay was with the dynamic range of the assay (5-100 μM phosphate). The enzyme concentration was determined by the absorbance at 280 nm and using the predicted molecular weight and molar extinction coefficient to calculate the concentration. The enzyme reaction was initiated by the addition of 15 μL enzyme with 135 μL of the other reaction components such that the final reaction composition was as previously described. The reaction was stopped after 5 min by mixing 80 μL of the reaction mixture with 20 μL of the malachite green working reagent. The malachite green working reagent was prepared according to the manufacturer's protocol by mixing 100 parts reagent A with 1 part reagent B. Phosphate standard solutions (0-80 μM) and a negative control reaction without enzyme were also mixed with the malachite green working reagent. All samples were tested in duplicate. The malachite green reaction mixture was allowed to rest at room temperature for 45-60 min and the absorbance at 620 nm was measured. Lastly, the absorbance of the phosphate standards were used to convert the absorbance readings of each sample into phosphate concentrations and the negative control was subtracted from each reaction.
Enzymes of interest were assayed against ATP substrate. The ATPase activity was measured at 0.05 ppm concentration in 50 mM IVIES buffer pH 6 and pH 5 with 0.1 mM ATP as substrate as described in Example 1. Commercial potato apyrase was used as reference. The absorbance at 620 nm was measured and the absorbance of a blank sample (water) was subtracted from each sample.

[2] = pH profile of enzymes on 1 mM ATP; format: biochemical; conditions: 50 mM trisodium citrate/citric acid, 5 mM CaCl2, relative to the highest value
Protocol: The pH profile of additional enzymes of interest was assayed using 1 mM ATP, in 50 mM trisodium citrate/citric acid buffer with 5 mM CaCl2. Absorbance was read at 620 nm and all values were set relative to the highest one. Commercial potato apyrase was used as reference. […]

Row | Molecule | Activity on ATP (absorbance at 620 nm, blank subtracted), pH 5.0 [1] | Activity on ATP (absorbance at 620 nm, blank subtracted), pH 6.0 [1] | Relative activity on ATP, pH 3 [2] | Relative activity on ATP, pH 3.5 [2] | Relative activity on ATP, pH 4 [2] | Relative activity on ATP, pH 4.5 [2] | Relative activity on ATP, pH 5 [2] | Relative activity on ATP, pH 5.5 [2] | Relative activity on ATP, pH 6 [2] | Relative activity on ATP, pH 6.5 [2]
1 | CRC22387: GDA1/CD39 family enzyme, accession WP_127099836.1, SEQ ID NO:13 (protein, listed as Legionella sp.) QSSPCEKQQCIAIVDAGSTGSRLHIYAYDLDVTKTPIHIKELWNKKITPGFARIEANTNTIDSYLTILLADSPIKKIPIYFYATAGMRLLPQMKQKKYYDELSSWFKKHSEWQLVEAKTITGNEEGLYDWLSVNYHLGNFESPTNKSIGVMDMGGASVQIVFPIAETPTINDKSQIQVNLYGRHYNLYVHSFLGLGQTEMSHQFLNSASCFVNNYPLPDGAEGQGNALSCEQEVSSLMNQVHGVNQLIQPLLAANPVDSWYSIGGISNLADSQFFNFQHSQLTNQDLLEQADSQICHQQWEDINNQYPDDDYVYQYCLFSAYYYALMVDGYGLYPEQTINYLPPQQNIDWTTGVVLHQQR | 0.36 | 0.11 | 0.1 | 0.0 | 0.0 | 0.1 | 0.3 | 0.5 | 1.0 | 1.0
2 | CRC22620: GDA1/CD39 family enzyme, accession NBS62745.1, SEQ ID NO:16 (protein, listed as Betaproteobacteria sp.) EDAARYLAVIDAGSSGSRLHLYERTAAERSVAVKQLFEAKAGEALSSFERSPGDAGPRGIQPLLEQLLDRLALLNIERSAVHVHVLATAGMRRLDADNPAAAQVIYQSVRHTLSSAGVTARRIETLSGHLEGVYAWVDVNDLSGALASTPAGATVAVIEVGGASAQLAYSGEALAGAPVTAVRLNGRSHQVVSLTWLGLGQDEARRAMLNAARSRSNADEEHCYPDNRKAAGGLSAFDADGSRHLVARGRFSFEQCSEMYDAVIRPFDLPPLATAIRQSRRPLVGLASVYFSLADWQVIGQPGTLASTLRGQCEGEDAYGDKVIGFIRRDPKNRFAQTACANGTFIHALLFGPAGLRVDPAQVSAVARINGQPPSWARGFALLGR | 0.13 | 0.22 | 0.0 | 0.0 | 0.0 | 0.1 | 0.4 | 0.7 | 1.0 | 0.8
3 | CRC22606: GDA1/CD39 family enzyme, accession OQW93475.1, SEQ ID NO:15 (protein, listed as Beggiatoa sp.) ETNGPAACHIVYDAGSSGTRLYIYEQQDKAWLEHEGPKVSALADPVREIRGKHWKDAESVTIEVVSALDSIKQDGPVKGDKPAWKAFDWTKHCQIKSAGVYATAGMRLAEQANKERSVTLWASLKQKLAAKLGPTVDIEARTLTGYEEGLYAWLAVREQQPDDSFAIAEMGGASAQITFPCAKCDENDPDTKTVQLSGKHLQIYSYSFLGLGQDEASHSLGFPTSCANGIGTQQSGWKAQDCANQIQLTGSKGIRDPYDFDGEQRGAHEQPPIAQADSNRWFLTGAFNYMNASNIETYCLKDPKLSEEESFCFRSIYPEKYLETLKIPVNSPKMNVSWTQGAVICKANSCLEAATKTPPLCRWLDKGCLP | 0.43 | 0.21 | 0.0 | 0.0 | 0.0 | 0.3 | 0.6 | 0.8 | 0.9 | 1.0
4 | CRC22386: GDA1/CD39 family enzyme, accession WP_173236575.1, SEQ ID NO:12 (protein, listed as Legionella antarctica) GTVSCNEHQCIAVIDAGSTGSRIHVYAYDMDETNTPVHINEVWTKKIKPGFATIEPNYESIEAYLVTLLSGAPNQDIPVYFYATAGMRLLPASKQKLYYQELQRWFSQQHQWRLIDAKTITGNEEALYDWLSVNYHLDTLKSIQNKSVGVMDMGGASVQIVFPIQKNEEINSNSQVELDLYGHHVNLYVHSFLGLGQTEMSHQFLNSVSCFANDYPLPDGESGRGNAPSCKQEVSSLMNGVHGVNKTIQPVLTANPVDTWFAIGGLTNLADNKLFHFENGELTNQNLMQQADSQICHQQWDKLNSEFPNDDYVYEYCLLSAYYYALMVDGYGIYPEQTVNYVSSALNLDWTKGVVLHH | 0.36 | 0.25 | 0.0 | 0.0 | 0.0 | 0.0 | 0.2 | 0.6 | 0.8 | 1.0
5 | CRC22112: GDA1/CD39 family enzyme, accession KTD66016.1, SEQ ID NO:10 (protein, listed as Legionella santicrucis) ESAECTEHQCMAVVDAGSTGSRAHIFAYDLDETNTPSQIHEIWSKKIKPGLATIEANQDTIDAYLTILFSGAPKQNIPVYFYATGGMRLIPQTKQKLYYKEIQNWFNQQSIWQLIEAKTITGNDEALYDWLAVNYHIGTLKSSTTEPIGVMDIGGASVQIAFPIPKDVETNKSSQVELDLYGKHLNLFVHSFLGLGQNEVTHQLLDTNSCFSEGYPLPGGNLGQGDAVICQQEVSSLINRVHKVQSEVQPTLATNRITMWYAIGGLTNLVESEPFQFQNNQITNQDLLQQANSLICHQQWEGLSTQFPDNEYIESFCLLPAFYYALMIDGYGISVTQPVKYISPRENLDWTTGVVLHH | 0.04 | 0.06 |  |  |  |  |  |  |  | 
6 | CRC22605: GDA1/CD39 family enzyme, accession WP_133471262.1, SEQ ID NO:14 (protein, listed as Paraglaciecola sp.) QSKKPCYIVYDAGSSGTRLYIYEQLGANLISHEGPKVSALADPIRYTHGKDLSDLDTITNEVASALDLIKLDGPLEEGKPKWSGFDWSKQCEAQSVKVFATAGMRIAEQINPADSLVLWQTLASKINAKVGHNIKVEARTLTGFEEGLFAWLSVKDVYPSGHYGMVEMGGASSQITFPCPQCSLANDAVKTVTVDGKPIQIYSYSYLGLGQNEAPYSLPFGVAGQVPKSCSYGVGANNPDWTIASCAVEIPITAKGSNTDIIDPYNYTKTGTKGTTNTLPAAHKNIPKWLLMGAFNYAKETDIDDFCFNQHDGYYNAFTACFNPIYLDKYLKTLNIQAEQSSKVDVSWTQGAVICQIENCLATITPPPVCRWMKSGCLAY | 0.50 | 0.28 | 0.0 | 0.0 | 0.0 | 0.0 | 0.4 | 0.8 | 1.0 | 1.0
7 | CRC25082: Acid phosphatase (Class A), accession WP_050460978.1, SEQ ID NO:19 (protein, listed as Herbaspirillum autotrophicum) KGAAGFLNGQTAPDSLAILPPPPAEDSVAFQADKAQYETGHVLRDPERVEQARQDADYRNFGHAFSAAFGMEISATHTPVLYQLLTEVLQDSHDYAMKAAKNHYKRVRPFVVYKDPTCTPGQDEKMALSGSYPSGHASFGWAAALVLAEINPARQTEILQRGYAFGKSRVICGAHWQSDVDNGQLMGAAVVAALHSNSQFAAALNAAKNEFAGLRAQDNKK | 0.93 | 0.65 | 0.0 | 0.0 | 0.0 | 0.1 | 0.3 | 0.7 | 1.0 | 0.8
8 | CRC22383: GDA1/CD39 family enzyme, accession WP_058475114.1, SEQ ID NO:11 (protein, listed as Legionella quateirensis) ADNPCTNHQCIAVIDAGSTGSRLHVFSYDVDETRSPININEIWNKKIKPGFATIEPNSNTIDAYLTTLLSGAPNQQIPVYFYATAGMRLLPVSKQKKYYDELQHWFSQQSQWQLVEAKTITGNDEALYDWLSVNYHLGTLQKSLNQSVGVMDMGGASVQIVFPIQKNSELNTRSQVELDLYGQHYTLYVQSFLGLGQTEVAHQFLNSAPCFSNDYPLPDGESGQGNASACEQEVSRLMTEVHKVNNVIQPLLAANPVDSWYSIGGISNLADSSLFHFENSKLTNQNLLQQADSQVCHQQWDSLNSQFPDDEYVYQYCLFSAYYYALMVDGYGIVPDQSINYIPPAQNLDWTMGVVLHH | 0.07 | 0.10 |  |  |  |  |  |  |  | 
